According to the supplement of paper PMC7125110:
± gives the standard error. Fewer inactive variants are shown than the library holds.

B1: glmS ribozyme (parent)
chain: AUAAAAGCGCCAGAACUACAGAAAUGUAGUUGACGAGGAGGAGGUUUAUCGAAUUUUCGGCGGAUGCCUCCAAA

How the values were obtained:
Conditions in all cases: with glucosamine-6-phosphate
glucosamine-6-phosphate [1] = variants of: B1; experiment: self-cleavage kobs at 40 uM GlcN6P; higher = faster cleavage; RNA array
Procedure, shortened: (§1)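 Tiles of sequenced MiSeq chips were imaged over ~14 h at 37 °C. On them, barcoded ribozyme variants had been transcribed in situ by E. coli RNA polymerase and were tracked via a hybridised Cy3 probe while glucosamine-6-phosphate (40 μM to 10 mM) in HEPES/KCl/Mg(OAc)2 buffer flowed in. Per-tile medians, normalised to baseline and to non-cleaving reference variants, were fit to one- or two-exponential decays for kobs, and weighted Michaelis–Menten fits gave kcat and KM.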

glucosamine-6-phosphate [2] = variants of: B1; experiment: self-cleavage kobs at 640 uM GlcN6P; higher = faster cleavage; RNA array
Procedure, shortened: as §1

glucosamine-6-phosphate [3] = variants of: B1; experiment: self-cleavage kobs at 10000 uM GlcN6P; higher = faster cleavage; RNA array
Procedure, shortened: as §1

glucosamine-6-phosphate [4] = variants of: B1; experiment: self-cleavage kobs at 2500 uM GlcN6P; higher = faster cleavage; RNA array
Procedure, shortened: as §1

glucosamine-6-phosphate [5] = variants of: B1; experiment: self-cleavage kobs at 160 uM GlcN6P; higher = faster cleavage; RNA array
Procedure, shortened: as §1

Row | Variant | self-cleavage kobs at 40 uM GlcN6P (glucosamine-6-phosphate [1]) [s⁻¹] | self-cleavage kobs at 640 uM GlcN6P (glucosamine-6-phosphate [2]) [s⁻¹] | self-cleavage kobs at 10000 uM GlcN6P (glucosamine-6-phosphate [3]) [s⁻¹] | self-cleavage kobs at 2500 uM GlcN6P (glucosamine-6-phosphate [4]) [s⁻¹] | self-cleavage kobs at 160 uM GlcN6P (glucosamine-6-phosphate [5]) [s⁻¹]
1 | A12U A36U G44A | < 1e-05 |  |  |  | 
2 | A12G A15U U49A U54G | < 1e-05 |  |  |  | 
3 | C11U G32C U55G A64C | < 1e-05 | < 1e-05 | < 1e-05 |  | 
4 | C11U G13A A14C A52C G66A | < 1e-05 |  | < 1e-05 |  | 
5 | C11A C16A U47C C61U | < 1e-05 |  |  | < 1e-05 | 
6 | G13A C58U C67G | < 1e-05 |  |  |  | 
7 | A12G G29U G44A G63A | < 1e-05 |  | < 1e-05 |  | 
8 | C11A G43U | < 1e-05 | < 1e-05 | < 1e-05 |  | < 1e-05
9 | G13C G43U | < 1e-05 | < 1e-05 | < 1e-05 | < 1e-05 | 
10 | A12G G32A A33U C70G | < 1e-05 | < 1e-05 |  |  | < 1e-05
11 | A12C G38C A42U | < 1e-05 |  | < 1e-05 |  | 
12 | C11U C58G C67U U69G | 3.48e-05 ± 1.2e-05 |  | 6.72e-05 ± 1.3e-05 |  | 
13 | A12G G32A | < 1e-05 |  | 5.21e-05 ± 7.4e-06 |  | < 1e-05
14 | C11A G66C | < 1e-05 |  |  | < 1e-05 | 
15 | G13A C16U G37U C67U | < 1e-05 |  |  |  | 
16 | A12C G38C G44A A64G | < 1e-05 |  |  | < 1e-05 | 
17 | A12U G40U G41C | < 1e-05 |  |  |  | 
18 | C11A G59C | < 1e-05 | < 1e-05 |  |  | < 1e-05
19 | C11G A36G G40C | < 1e-05 | < 1e-05 | < 1e-05 | < 1e-05 | < 1e-05
20 | A12U G29A A39G A53U | 0.000581 ± 0.00016 |  | 0.0117 ± 0.0041 |  | 
21 | C11U A15G C50G | 5.89e-05 ± 2.4e-05 |  |  |  | 
22 | C11A C16G U54A C68A | 6.79e-05 ± 2.4e-05 |  | 5.11e-05 ± 2e-05 |  | 
23 | A12U U31C G41A G60U | < 1e-05 |  |  |  | 
24 | A12C C58U G63U | < 1e-05 |  | < 1e-05 |  | 
25 | G13A G63U | < 1e-05 | < 1e-05 | < 1e-05 | < 1e-05 | < 1e-05
26 | A12C G43C | < 1e-05 | < 1e-05 |  |  | < 1e-05

Row | Variant | self-cleavage kobs at 40 uM GlcN6P (glucosamine-6-phosphate [1]) [s⁻¹] | self-cleavage kobs at 640 uM GlcN6P (glucosamine-6-phosphate [2]) [s⁻¹] | self-cleavage kobs at 10000 uM GlcN6P (glucosamine-6-phosphate [3]) [s⁻¹] | self-cleavage kobs at 2500 uM GlcN6P (glucosamine-6-phosphate [4]) [s⁻¹] | self-cleavage kobs at 160 uM GlcN6P (glucosamine-6-phosphate [5]) [s⁻¹]
27 | A12C G26U | 0.000614 ± 0.00014 | 0.00546 ± 0.0013 | 0.0113 ± 0.0032 | 0.00321 ± 0.00099 | 
28 | A12C G35U | < 1e-05 | < 1e-05 | < 1e-05 | < 1e-05 | < 1e-05
29 | A12C G29U | 0.000186 ± 2.6e-05 | 0.00225 ± 0.00065 | 0.031 ± 0.014 | 0.00483 ± 0.0017 | 0.000725 ± 0.00022
30 | A12G A14U G38A | < 1e-05 |  | < 1e-05 |  | 
31 | C11G G29A U49G U69G | 4.27e-05 ± 1.7e-05 |  |  |  | 
32 | A12U A14U A53G | 0.000135 ± 3.3e-05 |  | 0.00411 ± 0.00079 |  | 
33 | A12C A36G A64C | < 1e-05 | < 1e-05 | < 1e-05 |  | 
34 | C11G U30C | < 1e-05 | < 1e-05 |  |  | 
35 | C11U A15C U46A | < 1e-05 | < 1e-05 |  |  | < 1e-05
36 | C11G G32C G38A A42C G60C | < 1e-05 |  |  | < 1e-05 | 
37 | A12G C34G G41C C50U U55A | < 1e-05 | < 1e-05 |  |  | 
38 | G13A C16U C67U | < 1e-05 |  | 0.00025 ± 4.5e-05 | 0.000111 ± 2.7e-05 | 
39 | G13A C34G C50U C67G | 0.000108 ± 3.3e-05 | 0.00142 ± 0.00036 | 8.5e-05 ± 2.6e-05 |  | 
40 | A12U G29A G41A C50A C67A | < 1e-05 |  |  |  | 
41 | C11A G60U | < 1e-05 | < 1e-05 | < 1e-05 | < 1e-05 | < 1e-05
42 | G13A C34A A36U C68G | 8.42e-05 ± 3e-05 |  | 6.2e-05 ± 2.4e-05 |  | 
43 | C11A G59A G60A A64U | < 1e-05 |  |  |  | 
44 | A12G C61A C70U | < 1e-05 |  | < 1e-05 |  | 
45 | C11U G44C G60U | < 1e-05 |  | < 1e-05 |  | 
46 | C11U A48U G51U | < 1e-05 |  |  |  | 
47 | C11U A14C A36G C50A | < 1e-05 |  | < 1e-05 |  | 
48 | A12U A39U U54C | 0.000713 ± 0.00016 |  | 0.0366 ± 0.01 |  | 
49 | A12U A33C G37C | < 1e-05 |  | < 1e-05 |  | 
50 | G13C A48G G66U C71G | < 1e-05 |  | < 1e-05 |  | 
51 | G13C G29U G32A | 7.61e-05 ± 2.4e-05 |  | 0.00214 ± 0.00069 |  | 
52 | A12U A14G G29A | 0.00101 ± 0.00019 |  | 0.00831 ± 0.0018 |  | 
